Consider two molecules from patent publication US20250066455A1 (published 2025).

In the assay the target is SARS-CoV-2 WT Spike (SARS-CoV-2, UniProt P0DTC2 14-1208). The experiment in a line: BLI. (BLI is a label-free optical method that tracks binding on a fibre tip over time.)

B1: REGN10987 (antibody, V domains shown)
VH: QVQLVESGGGVVQPGRSLRLSCAASGFTFSNYAMYWVRQAPGKGLEWVAVISYDGSNKYYADSVKGRFTISRDNSKNTLYLQMNSLRTEDTAVYYCASGSDYGDYLLVYWGQGTLVTVSS
VL: QSALTQPASVSGSPGQSITISCTGTSSDVGGYNYVSWYQQHPGKAPKLMIYDVSKRPSGVSNRFSGSKSGNTASLTISGLQSEDEADYYCNSLTSISTWVFGGGTKLTVLR
For B1, the dissociation constant (Kd) was under 0.01 nM.

B2: REGN10933 (antibody, V domains shown)
VH: QVQLVESGGGLVKPGGSLRLSCAASGFTFSDYYMSWIRQAPGKGLEWVSYITYSGSTIYYADSVKGRFTISRDNAKSSLYLQMNSLRAEDTAVYYCARDRGTTMVPFDYWGQGTLVTVSS
VL: DIQMTQSPSSLSASVGDRVTITCQASQDITNYLNWYQQKPGKAPKLLIYAASNLETGVPSRFSGSGSGTDFTFTISGLQPEDIATYYCQQYDNLPLTFGGGTKVEIKR
As to B2, the Kd was under 0.01 nM.

One may read the Kd as the free concentration of one partner at which half of the binding sites on the other are occupied at equilibrium, for simple one-to-one binding. Read a low Kd as higher affinity.
